Data as given in doi:10.1101/2021.02.22.432310.

Target: mGFP-UvrD (genomically integrated) (E. coli) (UniProt P03018)
Test: single-molecule fluorescence microscopy

stoichiometry N: 4
Substance: mGFP-UvrD (genomically integrated) (from UniProt P03018 1-720) (enzyme)
